Laboratory results from PMC11825094, “Tonic ubiquitination of the central body weight regulator melanocortin receptor 4 (MC4R) promotes its constitutive exit from cilia” (PLOS Biology, 2025).

Target: melanocortin receptor 4 (MC4R)-3xmNeonGreen, human (human, UniProt P32245 1-332, a fraction carries K63-linked polyubiquitin chains (smear above the main band))
Experiment: cell-based or functional assay

Chain of melanocortin receptor 4 (MC4R)-3xmNeonGreen, human (P32245 whole entry): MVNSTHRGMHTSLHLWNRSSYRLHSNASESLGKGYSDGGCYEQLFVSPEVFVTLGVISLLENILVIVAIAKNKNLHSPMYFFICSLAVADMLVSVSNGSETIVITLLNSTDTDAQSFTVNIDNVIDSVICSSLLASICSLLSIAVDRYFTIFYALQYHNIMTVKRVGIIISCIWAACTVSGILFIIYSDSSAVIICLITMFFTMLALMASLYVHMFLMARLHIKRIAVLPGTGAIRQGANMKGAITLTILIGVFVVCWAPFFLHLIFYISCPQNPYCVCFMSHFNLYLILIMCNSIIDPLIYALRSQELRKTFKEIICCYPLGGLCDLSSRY

B1: melanocortin receptor accessory protein 2 (MRAP2)-3xFLAG, murine (natural protein, mouse, UniProt D3Z1Q2 3-207, looked up)
chain: MSAQRLASNRTSPQSPSNSDYTWEYEYYEIGPVSFEGLKAHKYSIVIGFWVGLAVFVIFMFFVLTLLTKTGAPHQDNAESSERRFRMNSFVSDFGKPLESDKVFSRQGNEESRSLFHCYINEVEHLDRVKVCHQTTAIDSDVHLQEASRSSGRPEEELARFMKFDIPNFVNTEQSSFGEDDLLISEAPVLLENKPVSQTSRIDLD
  ciliary fluorescence of MRAP2^3FLAG in IMCD3-[MRAP2^3FLAG/MC4R^3NG] cells treated with 5 nM HS014, time course, against vehicle: 11 fold
  ciliary fluorescence of MRAP2^3FLAG in IMCD3-[MRAP2^3FLAG/MC4R^3NG] cells treated with 50 nM AgRP, time course, against vehicle: 25 fold
